# B1: FNI19-v3 (antibody, V domains shown)
# VH: QVQLVQSGAEVKKPGSSVKVSCKASEGTFNKYTISWVRQAPGQGLEWMGGIIPISGIANYAQKFQGRVAITADESTTTAYMELSSLRSEDSAVYYCATAVSDYFNRDLGWEDYYFPFWGQGTLVTVSS
# VL: EIVMTQSPATLSVSPGARATLFCRASRSVSDNLAWYQQKPGQAPRLLIFGASTRATGVPARFSGSGSGTQFTLTISSLQSEDFAVYYCQHYNIWPPWTFGQGTKVEIK
# How the values were obtained:
# [1] = target: N2_A_Leningrad_134_17_57 (influenza A virus); experiment: flow cytometry on NA-expressing cells
# [2] = target: N2 neuraminidase from A/Washington/01/2007 (Influenza A virus A/Washington/01/2007); experiment: flow cytometry on NA-expressing cells
binder,measurement,setting,value
B1,MFI normalized vs wt,[1],1.04
same,MFI normalized vs wt,[2],0.83

# Source: patent US20240092876A1 (priority 2020, published 2024)
